Data taken from publication PMC12720421, “Disordered N‐termini enhance the thermostability of SGNH‐hydrolase family polyesterases” (Protein Science : A Publication of the Protein Society, 2025).
Values joined by “and” are separate entries in the source; they are usually repeats but may differ in a detail not shown here. Identical values can stand only once.

How the values were obtained:
[1] = target: PpEST from Pseudomonas oleovorans (Pseudomonas oleovorans); experiment: SEC; analytical SEC on a Superdex 200 Increase 10/300 GL column, with a BioRad Gel Filtration Standard; self-association of each purified esterase
[2] = tested on: CCCC(=O)Oc1ccc([N+](=O)[O-])cc1; experiment: purified protein; format: biochemical, Maribacter thermophilus; details: 50 mM Tris pH 8.0, room temperature, 5% methanol, 0.05-0.1 μM enzyme
[3] = target: Rp_EST from Rhodothermus profundi (Rhodothermus profundi); experiment: SEC; analytical SEC on a Superdex 200 Increase 10/300 GL column, with a BioRad Gel Filtration Standard; self-association of each purified esterase
Ft_EST = target: T1, Ft_EST (Fontimonas thermophila, UniProt A0A1I2JG86); experiment: pNP release at […] nm, specific activity; format: biochemical; details: 50 mM Tris pH 8.5, 5% methanol
T1 construct: gene SAMN04488120_10748
T1 sequence (A0A1I2JG86 25-217): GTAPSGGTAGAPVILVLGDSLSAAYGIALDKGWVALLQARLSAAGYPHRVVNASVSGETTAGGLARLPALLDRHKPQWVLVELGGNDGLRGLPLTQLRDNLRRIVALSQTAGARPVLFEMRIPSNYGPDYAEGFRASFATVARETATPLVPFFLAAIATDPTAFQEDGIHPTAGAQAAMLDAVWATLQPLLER

Pmt_EST = target: T2, Pmt_EST (Zestomonas thermotolerans, UniProt Z9LQW2KWT1); experiment: pNP release at […] nm, specific activity; format: biochemical; details: 50 mM Tris pH 8.5, 5% methanol
T2 sequence (Z9LQW2KWT1 41-245): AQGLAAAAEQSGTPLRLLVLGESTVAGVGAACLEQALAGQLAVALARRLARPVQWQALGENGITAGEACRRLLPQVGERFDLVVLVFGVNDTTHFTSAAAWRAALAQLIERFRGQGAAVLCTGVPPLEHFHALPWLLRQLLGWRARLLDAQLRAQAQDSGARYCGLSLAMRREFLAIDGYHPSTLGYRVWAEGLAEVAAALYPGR

purified protein [4] = substrate: CCCC(=O)Oc1ccc([N+](=O)[O-])cc1; experiment: purified protein; format: biochemical, Chloracidobacterium thermophilum; details: 50 mM Tris pH 8.0, room temperature, 5% methanol, 0.05-0.1 μM enzyme
purified protein [5] = substrate: CCCC(=O)Oc1ccc([N+](=O)[O-])cc1; experiment: purified protein; format: biochemical, Rhodothermus profundi; details: 50 mM Tris pH 8.0, room temperature, 5% methanol, 0.05-0.1 μM enzyme
purified protein [6] = substrate: CCCC(=O)Oc1ccc([N+](=O)[O-])cc1; experiment: purified protein; format: biochemical, Ectopseudomonas oleovorans; details: 50 mM Tris pH 8.0, room temperature, 5% methanol, 0.05-0.1 μM enzyme
purified protein [7] = substrate: CCCC(=O)Oc1ccc([N+](=O)[O-])cc1; experiment: purified protein; format: biochemical, Altericroceibacterium indicum; details: 50 mM Tris pH 8.0, room temperature, 5% methanol, 0.05-0.1 μM enzyme

“PpEST from Pseudomonas oleovorans (enzyme)” was tested, and the stoichiometry N [1] was 2.

Mt_EST (Maribacter thermophilus) showed a Km [2] of 453 ± 81 µM, a kcat [2] of 54.4 ± 4.4 s⁻¹ and a kcat/Km [2] of 120000 M⁻¹ s⁻¹.

With “Rp_EST from Rhodothermus profundi (enzyme)” the stoichiometry N [3] was 2 and 4.

In the case of `CCCC(=O)Oc1ccc([N+](=O)[O-])cc1` [pNP-butyrate], the “pNP release at 410 nm, specific activity” value (Ft_EST) is reported as “showed a clear preference for mid‐chain length esters, particularly pNP‐butyrate (C4)” and the “pNP release at 410 nm, specific activity” value (Pmt_EST) is reported as “showed a clear preference for mid‐chain length esters, particularly pNP‐butyrate (C4)”.

B1: shCt_EST (Chloracidobacterium thermophilum B) (protein)
chain: TARPRIVVLGDSLTAGFGLPREASYPTVLQKKLDAAGLNYQVINAGISGDTSAGGVERLDWSLDGDVRIVILALGANDGLRGLPLTQMEANLRTIIERARARGAQVILAGLKAPAEAGPDYGAQFEAVYRKLAQQYRLPLIPSLLEGVAGREELNQEDGIHPNARGAAIVADNVWKVLEPVARQQLAQSQSNPDAPPAAKPAGAR
notes: N-terminal extension truncated to align with AlinE4 and PpEST (borders not in main text), C-terminal 6xHis tag, E. coli, monomer
For B1, the Km (purified protein [4]) was 646 ± 139 µM, the kcat (purified protein [4]) was 33.3 ± 3.7 s⁻¹ and the kcat/Km (purified protein [4]) was 52000 M⁻¹ s⁻¹.

B2: Rp_EST (Rhodothermus profundi) (protein)
chain: QDTSKSSASSSEGSPDTTAKTPTHAARAAQPITVLVLGNSLAAGYGLSPDEAFPAILQRKVDSLGWPVRILNAGLSGETSAGGLRRIDWLLRERIDVLILELGANDGLRGIDPEVTRQNLQGIIDKVRARYPEADIILAGMQLPPNLGPAYTAAFRALYPELARANNAYLIPFLLEGVGGVPELNQADGIHPTAEGQRIVAENVWRVLRPVLERRLGLA
In the case of B2, the Km (purified protein [5]) is reported as 246 ± 72 µM, the kcat (purified protein [5]) is reported as 12 ± 1.3 s⁻¹ and the kcat/Km (purified protein [5]) is reported as 49000 M⁻¹ s⁻¹.

B3: shRp_EST (Rhodothermus profundi) (protein)
chain: ITVLVLGNSLAAGYGLSPDEAFPAILQRKVDSLGWPVRILNAGLSGETSAGGLRRIDWLLRERIDVLILELGANDGLRGIDPEVTRQNLQGIIDKVRARYPEADIILAGMQLPPNLGPAYTAAFRALYPELARANNAYLIPFLLEGVGGVPELNQADGIHPTAEGQRIVAENVWRVLRPVLERRLGLA
notes: as for B1
In the case of B3, the Km (purified protein [5]) is reported as 257 ± 43 µM, the kcat (purified protein [5]) is reported as 25 ± 1.6 s⁻¹ and the kcat/Km (purified protein [5]) is reported as 97000 M⁻¹ s⁻¹.

B4: Ct_EST (Chloracidobacterium thermophilum B) (protein)
chain: GGCSRTGTEAPENLPVLAPAPTDAAPTARPRIVVLGDSLTAGFGLPREASYPTVLQKKLDAAGLNYQVINAGISGDTSAGGVERLDWSLDGDVRIVILALGANDGLRGLPLTQMEANLRTIIERARARGAQVILAGLKAPAEAGPDYGAQFEAVYRKLAQQYRLPLIPSLLEGVAGREELNQEDGIHPNARGAAIVADNVWKVLEPVARQQLAQSQSNPDAPPAAKPAGAR
With B4 the Km (purified protein [4]) was 791 ± 178 µM, the kcat (purified protein [4]) was 38.5 ± 4.8 s⁻¹ and the kcat/Km (purified protein [4]) was 49000 M⁻¹ s⁻¹.

B5: PpEST (Ectopseudomonas oleovorans CECT 5344) (protein)
chain: GTLLVVGDSISAAFGLDSRQGWVALLEKRLSEEGFEHSVVNASISGDTSAGGAARLSALLAEHKPELVIIELGGNDGLRGQPPAQLQQNLASMVEQSQQAGAKVLLLGMKLPPNYGVRYTTAFAQVFTDLAEQKQVSLVPFFLEGVGGVPGMMQADGIHPAEAAQEILLDNVWPTLKPML
Molecule B5 has a Km (purified protein [6]) of 242 ± 49 µM, a kcat (purified protein [6]) of 14 ± 1 s⁻¹ and a kcat/Km (purified protein [6]) of 58000 M⁻¹ s⁻¹.

B6: AlinE4 (Altericroceibacterium indicum) (protein)
chain: SMGESRVILAFGDSLFAGYGLDKGESYPAKLETALRSHGINARIINAGVSGDTTAAGLQRIKFVLDSQPDKPELAIVELGGNDLLRGLSPAEARQNLSGILEELQRRKIPILLMGMRAPPNLGAKYQREFDGIYPYLAEKYDAKLVPFFLEAVADRPDLIQKDHVHPTARGVEELVSATSNAVAKALPAKK
In the case of B6, the Km (purified protein [7]) is reported as 194 ± 55 µM, the kcat (purified protein [7]) is reported as 15 ± 1.4 s⁻¹ and the kcat/Km (purified protein [7]) is reported as 77000 M⁻¹ s⁻¹.
